In the data set the target is T1, PdhR (Escherichia coli K-12 W3110) (UniProt P0ACL9).
T1 sequence: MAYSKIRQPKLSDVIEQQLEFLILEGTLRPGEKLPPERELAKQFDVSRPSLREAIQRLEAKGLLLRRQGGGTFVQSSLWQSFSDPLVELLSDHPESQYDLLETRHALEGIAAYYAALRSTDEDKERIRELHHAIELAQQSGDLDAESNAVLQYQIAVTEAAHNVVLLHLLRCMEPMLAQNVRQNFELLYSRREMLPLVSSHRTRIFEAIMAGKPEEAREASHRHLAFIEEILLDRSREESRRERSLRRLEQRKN
The data set is described as follows: EMSA. To be noted: Gel shift buffer (composition not given), 37 °C, 30 min; 0.2 pmol probe, 0-10 pmol PdhR; GelRed stain. gSELEX: 10 mM Tris-HCl pH 7.8 (4 °C), 3 mM Mg acetate ….

With “CTCTATATCACTCTCACAAATTCGCTCAAATAATAAACAATAAACTCTGTTTTTTGATCTCACCCGGTAAAGTCGCCTATCTTTTCAGCAACAAAACTTGATTAACATCAATTTTGGTATGACCAATGCACCATTCATGTTATTCTCAATAGCGAAGAACATTTTCATTGCTGTAACCTGTTGTTAATTAAGAGCTATGTTAATAACCATTAATTAACAATTGGTTAATAAATTTAAGGGGGTCACG (double strand) [ndh probe]”, the binding result was “binds”.

(Values after article PMC7660256.)
